Laboratory results published in patent US20170073430A1 (published 2017).
Read-outs that look alike come from different tables or passages of the source.

Key:
Assay in all cases: SPR
[1] = target: T1, monomeric hRNF43-His antigen (UniProt Q68DV7 24-197)
T1 chain: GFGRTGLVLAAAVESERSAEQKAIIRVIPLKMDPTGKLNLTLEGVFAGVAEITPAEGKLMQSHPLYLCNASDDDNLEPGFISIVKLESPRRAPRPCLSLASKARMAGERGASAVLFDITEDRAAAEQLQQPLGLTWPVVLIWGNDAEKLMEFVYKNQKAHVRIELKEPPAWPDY

rSC37.17 = target: rSC37.17
SC37.23 = target: SC37.23
rSC37.67 = target: rSC37.67
SC37.9 = target: SC37.9
rSC37.39 = target: rSC37.39
SC37.78 = target: SC37.78
[2] = target: T1, monomeric hRNF43-His antigen
[3] = target: T1, monomeric hRNF43-His antigen
[4] = target: T1, monomeric hRNF43-His antigen

B1: SC37.39 (antibody, V domains shown)
VH: QVQLQQSAAELARPGASVKMSCKASGYTFTTYTIHWVKQRPGQGLKWIGYINPRSGYTEYNQKFQDKTTMTSDNSSSTAYIQLSSLTSEDSAVYYCARSYEFWGQGTTLTVSS
VL: DIVMTQSQKFMSTSGGDRVSVTCKASQNVGINVAWYQQKPGQSPKALIYSASYRYSGVPNRFTGSGSGTDFTLTISNVQSEDLGDYFCHQYKTYPYTFGGGTKLEIK
[1]
  Kd: 1.1 nM

B2: RNF43 (other)
chain: GFGRTGLVLAAAVESERSAEQKAIIRVIPLKMDPTGKLNLTLEGVFAGVAEITPAEGKLMQSHPLYLCNASDDDNLEPGFISIVKLESPRRAPRPCLSLASKARMAGERGASAVLFDITEDRAAAEQLQQPLGLTWPVVLIWGNDAEKLMEFVYKNQKAHVRIELKEPPAWPDY
rSC37.17
  Kd: 9.3 nM
SC37.23
  Kd: 23.7 nM
rSC37.67
  Kd: 5.4 nM
SC37.9
  Kd: 160 nM
rSC37.39
  Kd: 1 nM
SC37.78
  Kd: 10.8 nM

B3: hSC37.17 (antibody, V domains shown)
VH: QVQLVQSGAEVKKPGASVKVSCKASGFNIKDTYIHWVRQAPGQGLEWMGRIDPANGKANYDPKFQGRVTMTRDTSTSTVYMELSSLRSEDTAVYYCALGGGYYGMDYWGQGTLVTVSS
VL: DIVMTQSPDSLAVSLGERATINCRASESVDSYGNSFMHWYQQKPGQPPKLLIYLASNLESGVPDRFSGSGSGTDFTLTISSLQAEDVAVYYCQQNNEDPLTFGQGTKVEIKR
[2]
  Kd: 1.2 nM

B4: hSC37.67 (antibody, V domains shown)
VH: QVQLVQSGAEVKKPGASVKVSCKASGYTFTRYWIEWVRQAPGQRLEWMGEILPGSGSTNYNEKFKGRVTITADTSASTAYMELSSLRSEDTAVYYCERRGAYWGQGTLVTVSS
VL: DIQMTQSPSSLSASVGDRVTITCKASEDIYNRLAWYQQKPGKAPKLLISGATSLETGVPSRFSGSGSGTDYTLTISSLQPEDFATYYCQQNWSTPPTFGGGTKVEIKR
[3]
  Kd: 4.2 nM

B5: SC37.3 (antibody, V domains shown)
VH: QIQLVQSGPELKKPGETVKISCKASGYTFTNYGMNWVRQAPGKGLKWVGWINTNTGEPTYADDFKGRFAFSLETSASTAYLQISNLKNEDMSTYFCAGSHDYSFAYWGQGTLVTVSA
VL: QAVVTQESALTTSPGETVTFTCRSSTGAVTTSNYANWVQEKPDHLFTGLIGGTNNRAPGVPARFSGSLIGDKAALTITGAQTEDEAIYFCALWYSNHWVFGGGTKLTVL
[4]
  Kd: 44 nM

B6: hSC37.2 (antibody, V domains shown)
VH: EVQLVESGGGLVQPGGSLRLSCAASGFTFSDFDMEWVRQAPGKGLEWVGASRNKANDYTTQYSASVKGRFTISRDTSKNSLYLQMNSLKTEDTAVYYCARDRYDYALDYWGQGTTVTVSS
VL: DIQMTQSPSSLSASVGDRVTITCKSSQTLLYYSNQKNYLAWYQQKPGKVPKLLIYWASTRDSGVPSRFSGSGSGTDFTLTISSLQPEDVATYYCQQYYNYPLTFGQGTKLEIKR
[4]
  Kd: 120 nM

B7: SC37.2 (antibody, V domains shown)
VH: EVNLVESGGGLVQPGGSLRLSCATSGFTFSDFDMEWVRQPPGKRLEWIAASRNKANDYTTQYSASVKGRFIVSRDTSQSIVYIQMNALRAEDTAIYYCARDRYDYALDYWGQGTSVTVSS
VL: DIVMSQSPSSLAVSVGEKVTMSCKSSQTLLYYSNQKNYLAWYQRKPGLSPKLLIYWASTRDSGVPDRFTGSGSGTDFTLTISSVKAEDLAVYYCQQYYNYPLTFGAGTKLELK
[4]
  Kd: 220 nM

B8: SC37.67 (antibody, V domains shown)
VH: QVQLQQSGAELMKPGASVKISCKATGYTFSRYWIEWVKQRPGHGLEWIGEILPGSGSTNYNEKFKGKATFTADTSSNTAYMQLTSLTSEDSAVYFCERRGAYWGQGTLVTVSA
VL: DIQMTQSSSSFSVSLGDRVTITCKASEDIYNRLAWYQQKPGNAPRLLISGATSLETGVPSRFSGSGSGKDYTLSITSLQTEDVATYHCQQNWSTPPTFGGGTKLEIK
[3]
  Kd: 3.5 nM

B9: hSC37.39 (antibody, V domains shown)
VH: QVQLVQSGAEVKKPGASVKVSCKASGYTFTTYTIHWVRQAPGQGLEWMGYINPRSGYTEYNQKFQDRVTMTRDTSTSTVYMELSSLRSEDTAVYYCARSYEFWGQGTTVTVSS
VL: EIVMTQSPATLSVSPGERATLSCKASQNVGINVAWYQQKPGQAPRALIYSASYRYSGIPARFSGSGSGTEFTLTISSLQSEDFAVYYCHQYKTYPYTFGGGTKVEIKR
[1]
  Kd: 0.34 nM

B10: SC37.17 (antibody, V domains shown)
VH: EVQLQQSGADLVKPGASVKLSCTGSGFNIKDTYIHWVRQRPEQGLEWIGRIDPANGKANYDPKFQGKATMTADTSSKTVYVQLSSLTSEDTAVYYCALGGGYYGMDYWGRGTSVTVSS
VL: NIVLTQSPASLAVSLGQRATISCRASESVDSYGNSFMHWYQQKPGQPPKLLIYLASNLESGVPARFSGSGSRTDFTLTIDPVEADDAATYYCQQNNEDPLTFGAGTKLELK
[2]
  Kd: 9.3 nM
